Measured values: article PMC4772976 (EMBO Reports, 2016)

Molecular target: His-Ub (UniProt P0CG48 1-76)
Assay: pull-down

binding result: binds
B1: GST-NAT10 RFL (RING finger-like, residues 456-558) (domain or fragment)
chain: SARTLYEVSLQESIRYAPGDAVEKWLNDLLCLDCLNITRIVSGCPLPEACELYYVNRDTLFCYHKASEVFLQRLMALYVASHYKNSPNDLQMLSDAPAHHLFC
